Measured values published in publication PMC8237747 (Journal for Immunotherapy of Cancer, 2021).

B1: Human OX40 (receptor)
chain: LHCVGDTYPSNDRCCHECRPGNGMVSRCSRSQNTVCRPCGPGFYNDVVSSKPCKPCTWCNLRSGSERKQLCTATQDTVCRCRAGTQPLDSYKPGVDCAPCPPGHFSPGDNQACKPWTNCTLAGKHTLQPASNSSDAICEDRDPPATQPQETQGPPARPITVQPTEAWPRTSQGPSTRPVEVPGGRA
B2: Urelumab (antibody, V domains shown)
VH: QVQLQQWGAGLLKPSETLSLTCAVYGGSFSGYYWSWIRQSPEKGLEWIGEINHGGYVTYNPSLESRVTISVDTSKNQFSLKLSSVTAADTAVYYCARDYGPGNYDWYFDLWGRGTLVTVSS
VL: EIVLTQSPATLSLSPGERATLSCRASQSVSSYLAWYQQKPGQAPRLLIYDASNRATGIPARFSGSGSGTDFTLTISSLEPEDFAVYYCQQRSNWPPALTFGGGTKVEIK
B3: cyno 4-1BB overexpressed on CHO cells (receptor)
chain: LQDLCSNCPAGTFCDNNRSQICSPCPPNSFSSAGGQRTCDICRQCKGVFKTRKECSSTSNAECDCISGYHCLGAECSMCEQDCKQGQELTKKGCKDCCFGTFNDQKRGICRPWTNCSLDGKSVLVNGTKERDVVCGPSPADLSPGASSATPPAPAREPGHSPQIIFFLALTSTVVLFLLFFLVLRFSVVKRSRKKLLYIFKQPFMRPVQTTQEEDGCSCRFPEEEEGGCEL
B4: Human GITR (receptor)
chain: QRPTGGPGCGPGRLLLGTGTDARCCRVHTTRCCRDYPGEECCSEWDCMCVQPEFHCGDPCCTTCRHHPCPPGQGVQSQGKFSFGFQCIDCASGTFSGGHEGHCKPWTDCTQFGFLTVFPGNKTHNAVCVPGSPPAEP

What was measured:
[1] = target: HZ-L-Yr-16-Fc; assay: ELISA
[2] = target: B3; assay: flow cytometry on cells
[3] = target: HZ-L-Yr-16-Fc; assay: flow cytometry on cells

binding result [1]	Binder	also measured
no binding	B1	
	B2	binding result [2]: no binding
	B3	binding result [3]: binds
no binding	B4	
